pKd: −log10 of the molar value.
Legend:
mini-procollagen III [1] = assay: SPR; Biacore T200; mini-procollagen III immobilised (240 RU), C1C2 wild-type or mutants injected, 50 μL/min, 25°C, 10 mM Na-Hepes pH 7.4, 0.15 M NaCl, 5 mM CaCl2, 0.05 % P20; 1:1 binding model
mini-procollagen III [2] = assay: SPR; conditions: immobilized mini-procollagen III (240 RU), flow rate 50 μL/min, 25°C; for pKd: 1:1 binding model, parent: est. 1.4 nM, read off a plot

fold increase in dissociation constant against wild-type C1C2 (mini-procollagen III [1]) [fold] | pKd (mini-procollagen III [2]) | response (mini-procollagen III [2]; 48 nM C1C2, response at end of association (about 100 s), parent: est. 29, read off a …) [RU] | Substance
50 | – | – | C1C2 fragment of PCPE-1, Arg91Ala mutant (pCEP-Pu construct) (from UniProt Q15113 1-252) (domain or fragment)
– | 6.92 | – | C1C2 fragment of PCPE-1, wild-type control, pCEP-Pu construct (N-terminal APLA, C-terminal …) (from UniProt Q15113) R55A; R91A; L234E
– | 8.59 | 26 | C1C2 fragment of PCPE-1, wild-type control, pCEP-Pu construct (N-terminal APLA, C-terminal …) (from UniProt Q15113) R55A
– | 7.21 | – | C1C2 fragment of PCPE-1, wild-type control, pCEP-Pu construct (N-terminal APLA, C-terminal …) (from UniProt Q15113) R91A
– | 7.27 | – | C1C2 fragment of PCPE-1, wild-type control, pCEP-Pu construct (N-terminal APLA, C-terminal …) (from UniProt Q15113) R55A; L234E
– | 7.70 | – | C1C2 fragment of PCPE-1, wild-type control, pCEP-Pu construct (N-terminal APLA, C-terminal …) (from UniProt Q15113) L234E

Reference: paper PMC6372009
